Assay results as given in article PMC9977947, “Targeting ATAD3A-PINK1-mitophagy axis overcomes chemoimmunotherapy resistance by redirecting PD-L1 to mitochondria” (Cell Research, 2023).
No end group written: not given here.

Biological target: T1, Flag-labeled truncated PINK1 (amino acids 321-509) (UniProt Q9BXM7 321-509)
T1 construct: PINK1, amino acids 321-509; also called C-lobe of kinase domain of PINK1; kinase domain C; source: HEK293T, purified using 3x Flag peptide
Assay: pull-down; purified Flag-PINK1 (full length or truncated) incubated with biotin-labeled PD-L1 ICD peptide in 25 mM Tris-HCl pH 7.4, 150 mM NaCl, 1 mM EDTA, 0.05% NP-40, 10% glycerol for 12 h at 4 °C; streptavidin sepharose beads or anti-Flag M2 affinity gel 1.5 h; five washes; immunoblot
Details: both partners purified

T1 sequence (Q9BXM7 321-509): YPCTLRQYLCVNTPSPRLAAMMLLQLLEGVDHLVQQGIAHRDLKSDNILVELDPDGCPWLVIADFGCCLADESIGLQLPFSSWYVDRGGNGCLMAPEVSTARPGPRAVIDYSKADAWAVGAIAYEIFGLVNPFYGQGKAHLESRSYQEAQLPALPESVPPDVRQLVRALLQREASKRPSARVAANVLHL

B1: Biotin-labeled PD-L1 ICD peptide (amino acids 262-290) (peptide, UniProt Q9NZQ7 262-290, looked up)
peptide: RKGRMMDVKKCGIQDTNSKKQSDTHLEET
modifications: also: biotin-labeled, position not given here
notes: PD-L1 (CD274), intracellular domain, amino acids 262-290; also called intracellular domain of PD-L1; intracellular region of PD-L1; source: synthetic peptide (GenScript)
  binding result: binds
